The text below walks through data of publication PMC3324550, “Antibiotic Resistance Is Prevalent in an Isolated Cave Microbiome” (PLoS ONE, 2012).

Series [1] concerns T1, MPH (2′)-II from B. paraconglomeratum (mphE).
T1 construct: codon-optimised synthetic gene in pET28b (NdeI/HindIII), E. coli BL21(DE3); IMAC and gel filtration
Briefly: pyruvate kinase/lactate dehydrogenase coupled assay, NADH absorbance at […] nm. It is filed as biochemical, Brachybacterium paraconglomeratum.

The target in series [2] is T1, MPH (2′)-II from B. paraconglomeratum (mphE). Described as above. It is filed as biochemical, Brachybacterium paraconglomeratum. The note with it: substrate inhibition constant (substrate-inhibition fit); GTP 200 µM.
Series [3] has as its system CC[C@H]1OC(=O)[C@H](C)C(=O)[C@H](C)[C@@H](O[C@@H]2O[C@H](C)C[C@H](N(C)C)[C@H]2O)[C@](C)(OC)C[C@@H](C)C(=O)[C@H](C)[C@H]2N(CCCCn3cnc(-c4cccnc4)c3)C(=O)O[C@]12C. Briefly: purified protein. The class given is biochemical, Brachybacterium faecium. The note with it: GTP 200 µM.
The test system of series [4] is CC[C@H]1OC(=O)[C@H](C)[C@@H](O[C@H]2C[C@@](C)(OC)[C@@H](O)[C@H](C)O2)[C@H](C)[C@@H](O[C@@H]2O[C@H](C)C[C@H](N(C)C)[C@H]2O)[C@](C)(O)C[C@@H](C)/C(=N\OCOCCOC)[C@H](C)[C@@H](O)[C@]1(C)O. As to the kind of experiment: purified protein. The class given is biochemical, Brachybacterium faecium. The note with it: GTP 200 µM.
Series [5] relates to CC[C@H]1OC(=O)[C@H](C)[C@@H](O[C@H]2C[C@@](C)(OC)[C@@H](O)[C@H](C)O2)[C@H](C)[C@@H](O[C@@H]2O[C@H](C)C[C@H](N(C)C)[C@H]2O)[C@](C)(O)C[C@@H](C)C(=O)[C@H](C)[C@@H](O)[C@]1(C)O. Briefly: purified protein. The note with it: GTP 200 µM. It is filed as biochemical, Brachybacterium faecium.
The subject of series [6] is CC[C@H]1OC(=O)[C@H](C)[C@@H](O[C@H]2C[C@@](C)(OC)[C@@H](O)[C@H](C)O2)[C@H](C)[C@@H](O[C@@H]2O[C@H](C)C[C@H](N(C)C)[C@H]2O)[C@](C)(O)C[C@@H](C)CN(C)[C@H](C)[C@@H](O)[C@]1(C)O. Briefly: purified protein. The class given is biochemical, Brachybacterium faecium. The note with it: GTP 200 µM.
Series [7] has as its system CC[C@H]1OC(=O)[C@H](C)[C@@H](O[C@H]2C[C@@](C)(OC)[C@@H](O)[C@H](C)O2)[C@H](C)[C@@H](O[C@@H]2O[C@H](C)C[C@H](N(C)C)[C@H]2O)[C@](C)(OC)C[C@@H](C)C(=O)[C@H](C)[C@@H](O)[C@]1(C)O. Briefly: purified protein. The note with it: GTP 200 µM. The class given is biochemical, Brachybacterium faecium.
For series [8], the system named is Nc1nc2c(ncn2[C@@H]2O[C@H](COP(=O)(O)OP(=O)(O)OP(=O)(O)O)[C@@H](O)[C@H]2O)c(=O)[nH]1. As to the kind of experiment: purified protein. The note with it: erythromycin 400 µM (table note; methods say 200 µM macrolide). It is filed as biochemical, Brachybacterium faecium.

Take `CC[C@H]1OC(=O)[C@H](C)[C@@H](O[C@H]2C[C@@](C)(OC)[C@@H](O)[C@H](C)O2)[C@H](C)[C@@H](O[C@@H]2O[C@H](C)C[C@H](N(C)C)[C@H]2O)[C@](C)(O)C[C@@H](C)C(=O)[C@H](C)[C@@H](O)[C@]1(C)O` [Erythromycin]: the Km in series [1] (GTP 200 µM) turned out to be 43.8 ± 11.3 µM.

As to `CC[C@H]1OC(=O)[C@H](C)[C@@H](O[C@H]2C[C@@](C)(OC)[C@@H](O)[C@H](C)O2)[C@H](C)[C@@H](O[C@@H]2O[C@H](C)C[C@H](N(C)C)[C@H]2O)[C@](C)(O)C[C@@H](C)/C(=N\OCOCCOC)[C@H](C)[C@@H](O)[C@]1(C)O` [Roxithromycin], the Michaelis-Menten constant (Km) in series [1] (GTP 200 µM) was 59 ± 10.9 µM.

For the compound `CC[C@H]1OC(=O)[C@H](C)[C@@H](O[C@H]2C[C@@](C)(OC)[C@@H](O)[C@H](C)O2)[C@H](C)[C@@H](O[C@@H]2O[C@H](C)C[C@H](N(C)C)[C@H]2O)[C@](C)(OC)C[C@@H](C)C(=O)[C@H](C)[C@@H](O)[C@]1(C)O` [Clarithromycin], the Km in series [1] (GTP 200 µM) came out at 21.9 ± 5.45 µM.

For the compound `CC[C@H]1OC(=O)[C@H](C)C(=O)[C@H](C)[C@@H](O[C@@H]2O[C@H](C)C[C@H](N(C)C)[C@H]2O)[C@](C)(OC)C[C@@H](C)C(=O)[C@H](C)[C@H]2N(CCCCn3cnc(-c4cccnc4)c3)C(=O)O[C@]12C` [Telithromycin], in series [1] (GTP 200 µM, substrate-inhibition fit), the Michaelis-Menten constant (Km) was 12.2 ± 5 µM. The “Ki” value in series [2] was found to be 600 ± 285 µM.

With “MPH (2′)-II from B. faecium DSM 4810 (Brachybacterium faecium DSM 4810)”, the Km in series [3] was 23.9 ± 4.22 µM; in series [4], 19.3 ± 2.60 µM; in series [5], 38.2 ± 6.24 µM; in series [6] it was 60.6 ± 8.86 µM; in series [7], 42.0 ± 6.26 µM; in series [8], 16.0 ± 1.3 µM. Besides, the catalytic constant (kcat) in series [3] is 0.168 s⁻¹; in series [4] it was 0.262 s⁻¹; in series [5], 0.192 s⁻¹; in series [6], 0.312 s⁻¹; in series [7] it was 0.286 s⁻¹; in series [8] it was 0.203 s⁻¹. For the same compound, the kcat/Km in series [3] was 7050 M⁻¹ s⁻¹; in series [4], 13600 M⁻¹ s⁻¹; in series [5], 5030 M⁻¹ s⁻¹; in series [6] it was 5180 M⁻¹ s⁻¹; in series [7], 6810 M⁻¹ s⁻¹; in series [8] it was 12700 M⁻¹ s⁻¹.

In the case of `Nc1nc2c(ncn2[C@@H]2O[C@H](COP(=O)(O)OP(=O)(O)OP(=O)(O)O)[C@@H](O)[C@H]2O)c(=O)[nH]1` [GTP], in series [1] (erythromycin 400 µM (table note; methods say 200 µM macrolide)), the Km came out at 10.2 ± 0.53 µM.

Turning to `CC[C@H]1OC(=O)[C@H](C)[C@@H](O[C@H]2C[C@@](C)(OC)[C@@H](O)[C@H](C)O2)[C@H](C)[C@@H](O[C@@H]2O[C@H](C)C[C@H](N(C)C)[C@H]2O)[C@](C)(O)C[C@@H](C)CN(C)[C@H](C)[C@@H](O)[C@]1(C)O` [Azithromycin], the Km in series [1] (GTP 200 µM) stood at 54 ± 7.59 µM.
